# From PMC11751033
# System: ATF 3r (six-zinc-finger artificial transcription factor with NLS, VP64 and HA tag) (artificial/designed (expressed in E. coli BL21))
# Assay: EMSA
# Details: EMSA: 2.5% glycerol, 5 mM MgCl2, 0.05% NP-40, 50 mM KCl, 20 uL, 20 pmol DNA, 0 C 1 h; 4-8% native PAGE in TBE pH 8.2-8.4, 5 C, SYBR Safe stain; binding pH not …
substance,measurement,value
IFNG target dsDNA (ATF 3 site),Kd,5.2 nM
